From PMC9718832, “An NKX-COUP-TFII morphogenetic code directs mucosal endothelial addressin expression” (Nature Communications, 2022)
Changes are numbered by the printed parent chain.

Legend:
[1] = molecular target: NKX2-3;COUP-TFII-GST (mouse;mouse, UniProt P97334;P43135 1-362;1-414, |); assay: EMSA; EMSA: 20 mM Tris pH 8.0, 10 mM KCl, 1 mM DTT, 20% glycerol, 12.5 ng poly dI/C, 6.25 pmol random ss oligo, BSA, 1-2 pmol probe, 4 C; details: protein: recombinant;recombinant; tags: His, T7 (pET21A);GST (pGEX2TK); copies: 1;1; label: labeled; blunt
[2] = molecular target: T1, COUP-TFII-GST (mouse, UniProt P43135 1-414); assay: EMSA; inhibited by cold WT probe; EMSA: 20 mM Tris pH 8.0, 10 mM KCl, 1 mM DTT, 20% glycerol, 12.5 ng poly dI/C, 6.25 pmol random ss oligo, BSA, 1-2 pmol probe, 4 C; details: protein: recombinant; tags: GST (pGEX2TK); chain copies: 2; label: labeled; blunt
T1 sequence: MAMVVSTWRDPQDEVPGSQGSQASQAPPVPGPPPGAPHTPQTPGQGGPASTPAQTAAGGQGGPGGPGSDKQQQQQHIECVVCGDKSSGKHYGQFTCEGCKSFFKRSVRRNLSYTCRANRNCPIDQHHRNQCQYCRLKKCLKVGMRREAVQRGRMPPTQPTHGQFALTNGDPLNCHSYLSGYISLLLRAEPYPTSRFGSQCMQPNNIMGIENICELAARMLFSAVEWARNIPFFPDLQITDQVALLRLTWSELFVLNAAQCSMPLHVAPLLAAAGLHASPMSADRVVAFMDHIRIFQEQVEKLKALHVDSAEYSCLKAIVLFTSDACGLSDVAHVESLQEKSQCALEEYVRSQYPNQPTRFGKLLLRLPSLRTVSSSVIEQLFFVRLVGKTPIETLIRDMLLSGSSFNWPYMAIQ

[3] = molecular target: T2, NKX2-3 (mouse, UniProt P97334 1-362); assay: as above; details: protein: recombinant; tags: His, T7 (pET21A); label: labeled; blunt
[4] = molecular target: T2, NKX2-3; assay: EMSA; supershift; HEY1 dose-dependently inhibits (Fig S1B); EMSA: 20 mM Tris pH 8.0, 10 mM KCl, 1 mM DTT, 20% glycerol, 12.5 ng poly dI/C, 6.25 pmol random ss oligo, BSA, 1-2 pmol probe, 4 C; details: protein: recombinant; tags: His, T7 (pET21A); blunt
[5] = molecular target: T3, HEY1 (mouse, UniProt Q9WV93 1-299); assay: EMSA; supershift with anti-HEY1 (HRT1); EMSA: 20 mM Tris pH 8.0, 10 mM KCl, 1 mM DTT, 20% glycerol, 12.5 ng poly dI/C, 6.25 pmol random ss oligo, BSA, 1-2 pmol probe, 4 C; details: protein: recombinant; tags: His, T7 (pET21A); chain copies: 2; blunt
T3 sequence: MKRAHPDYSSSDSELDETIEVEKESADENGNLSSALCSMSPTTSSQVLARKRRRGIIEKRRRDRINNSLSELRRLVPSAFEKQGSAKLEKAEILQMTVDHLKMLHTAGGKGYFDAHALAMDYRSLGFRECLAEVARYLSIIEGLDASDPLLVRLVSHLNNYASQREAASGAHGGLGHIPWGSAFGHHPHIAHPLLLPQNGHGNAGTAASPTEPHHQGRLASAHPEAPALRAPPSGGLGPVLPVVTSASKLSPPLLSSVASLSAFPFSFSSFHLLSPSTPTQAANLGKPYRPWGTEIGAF

[6] = molecular target: T4, COUP-TFII (mouse, UniProt P43135 1-414); assay: EMSA; supershift; EMSA: 20 mM Tris pH 8.0, 10 mM KCl, 1 mM DTT, 20% glycerol, 12.5 ng poly dI/C, 6.25 pmol random ss oligo, BSA, 1-2 pmol probe, 4 C; details: protein: recombinant; tags: His, T7 (pET21A); chain copies: 2; blunt
T4 sequence: T1 sequence

[7] = molecular target: T5, NKX2-3;COUP-TFII (mouse;mouse, UniProt P97334;P43135 1-362;1-414, |); assay: EMSA; EMSA: 20 mM Tris pH 8.0, 10 mM KCl, 1 mM DTT, 20% glycerol, 12.5 ng poly dI/C, 6.25 pmol random ss oligo, BSA, 1-2 pmol probe, 4 C; details: protein: recombinant;recombinant; tags: His, T7 (pET21A);His, T7 (pET21A); copies: 1;1; blunt
[8] = molecular target: T2, NKX2-3; assay: as above; details: protein: recombinant; tags: His, T7 (pET21A); blunt
[9] = molecular target: T3, HEY1; assay: as above; details: protein: recombinant; tags: His, T7 (pET21A); chain copies: 2; blunt
[10] = molecular target: NKX2-5;COUP-TFII (mouse;mouse, UniProt P42582;P43135 1-318;1-414, |); assay: EMSA; COUP-TFII tag not stated; EMSA: 20 mM Tris pH 8.0, 10 mM KCl, 1 mM DTT, 20% glycerol, 12.5 ng poly dI/C, 6.25 pmol random ss oligo, BSA, 1-2 pmol probe, 4 C; details: protein: recombinant;recombinant, tags: His, T7 (pET21A);His, copies: 1;1, blunt
[11] = molecular target: T6, GST-tagged COUP-TFII (mouse, UniProt P43135 1-414); assay: native gel or EMSA; NKX2-3 and COUP-TFII-GST co-incubated with labelled St6gal1 NCCE probe; complex seen on DNA; details: both partners purified
T6 construct: COUP transcription factor 2 (COUP-TFII, Nr2f2); Nr2f2 cDNA cloned into pGEX2TK; also called COUP-TFII-GST; source: E. coli BL21, purified
T6 sequence (looked up): T1 sequence

[12] = molecular target: T7, COUP-TFII (recombinant, His- and T7-tagged) (mouse, UniProt P43135 1-414); assay: native gel or EMSA; recombinant proteins co-incubated with labelled Madcam1 CE probes (native CE, CE_ΔC_A, CE_ΔN_ΔC_A); 4 °C, 20% glycerol, 20 mM Tris pH 8.0, 10 mM KCl, 1 mM DTT, poly dI/C, BSA; 6% gel; supershift with anti-NKX2-3; complex seen on DNA; details: both partners purified
T7 construct: COUP transcription factor 2 (COUP-TFII, Nr2f2), mouse; cDNA PCR-amplified from mouse cDNA as BamHI-EcoRI fragment and cloned into pET21-A; also called Nr2f2; NR2F2; source: E. coli BL21, purified
T7 sequence (looked up): T1 sequence

[13] = molecular target: T5, NKX2-3;COUP-TFII; assay: EMSA; supershift with anti-NKX2-3; EMSA: 20 mM Tris pH 8.0, 10 mM KCl, 1 mM DTT, 20% glycerol, 12.5 ng poly dI/C, 6.25 pmol random ss oligo, BSA, 1-2 pmol probe, 4 C; details: protein: recombinant;recombinant, tags: His, T7 (pET21A);His, copies: 1;1, blunt
[14] = molecular target: T4, COUP-TFII; assay: EMSA; EMSA: 20 mM Tris pH 8.0, 10 mM KCl, 1 mM DTT, 20% glycerol, 12.5 ng poly dI/C, 6.25 pmol random ss oligo, BSA, 1-2 pmol probe, 4 C; details: protein: recombinant; tags: His, T7 (pET21A); chain copies: 2; blunt
[15] = molecular target: T5, NKX2-3;COUP-TFII; assay: EMSA; band stronger than on WT CE; supershift with anti-NKX2-3; EMSA: 20 mM Tris pH 8.0, 10 mM KCl, 1 mM DTT, 20% glycerol, 12.5 ng poly dI/C, 6.25 pmol random ss oligo, BSA, 1-2 pmol probe, 4 C; details: protein: recombinant;recombinant, tags: His, T7 (pET21A);His, copies: 1;1, blunt

Sequence of NKX2-5;COUP-TFII (P42582 whole entry, one chain of several): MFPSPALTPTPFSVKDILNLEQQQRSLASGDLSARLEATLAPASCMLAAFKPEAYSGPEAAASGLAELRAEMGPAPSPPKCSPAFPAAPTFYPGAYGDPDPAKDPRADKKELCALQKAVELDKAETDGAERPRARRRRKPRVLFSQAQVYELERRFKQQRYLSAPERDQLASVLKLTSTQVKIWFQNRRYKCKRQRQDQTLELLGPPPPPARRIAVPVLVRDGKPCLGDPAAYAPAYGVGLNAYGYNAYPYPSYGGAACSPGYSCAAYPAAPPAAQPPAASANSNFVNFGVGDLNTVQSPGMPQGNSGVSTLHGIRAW

B1: St6gal1 CE WT (dsDNA)
DNA 1: GAGGCTGGTCAGAGAAGTGTGAAAAG
DNA 2: CTTTTCACACTTCTCTGACCAGCCTC
- binding result [1]: binds
- binding result [2]: binds
- binding result [3]: binds

B2: Madcam1 CE WT (dsDNA)
DNA 1: CCATGCACTTGACCCACCATGGTGACCCACCTCC
DNA 2: GGAGGTGGGTCACCATGGTGGGTCAAGTGCATGG
- binding result [4]: binds
- binding result [5]: binds
- binding result [6]: binds
- binding result [7]: binds

B3: Madcam1 CE_deltaE/N (m1) (dsDNA)
DNA 1: B2 DNA 1 with C6G, A7T
DNA 2: B2 DNA 2 with T28A, G29C
- binding result [8]: no binding
- binding result [9]: no binding

B4: Tbx5 NCCE (dsDNA)
DNA 1: CCGCTGACCCGACCCTTAATAAGGCA
DNA 2: TGCCTTATTAAGGGTCGGGTCAGCGG
- binding result [10]: binds

B5: Etv2 NCCE (dsDNA)
DNA 1: CCTGCAACTTGACCCAGGCTGCGACCCCCAGC
DNA 2: GCTGGGGGTCGCAGCCTGGGTCAAGTTGCAGG
- binding result [10]: binds

B6: NKX2-3 (recombinant, His- and T7-tagged) (natural protein, mouse, UniProt P97334 1-362, looked up)
chain: MMLPSPVTSTPFSVKDILNLEQQRHFHGAHLQAELEQHFHSAPCMLATAEGTQFSDAGEEDEEEEGEKLSYLNSLAAAEGHGDSGLCPQSYVHTVLRDACSGPKEQEEEVVSERSQKSCQLKKSLEAAGDCKTSEDGERPKPRSRRKPRVLFSQAQVFELERRFKQQRYLSAPEREHLASSLKLTSTQVKIWFQNRRYKCKRQRQDKSLELGTHAPPPPPRRVAVPVLVRDGKPCVTPSAQTYGSPYGVGAGAYSYNSFPAYGYGNSAAAAAAAAAAAAAAAAYSGSYGCAYPTGGGGGGGGTASAATTAMQPACSATGGGSFVNVSNLGGFGSGGGAQPLHQGAAAGSACTQGTLQGIRAW
notes: Homeobox protein NKX2-3, mouse; cDNA PCR-amplified from mouse cDNA as EcoRI-HindIII fragment and cloned into pET21-A; also called intestinal homeodomain protein NKX2-3; source: E. coli BL21, purified
- binding result [11]: binds
- binding result [12]: binds

B7: Madcam1 CE_deltaN_deltaC_A (dsDNA)
DNA 1: CCATGGTCTTGAAAAAAAATGGTGACCCACCTCC
DNA 2: GGAGGTGGGTCACCATTTTTTTTCAAGACCATGG
- binding result [13]: binds
- binding result [14]: binds
- binding result [8]: no binding

B8: Madcam1 CE_deltaC_A (dsDNA)
DNA 1: B7 DNA 1 with G6C, T7A
DNA 2: B7 DNA 2 with A28T, C29G
- binding result [15]: binds
